One assay deals with T1, recombinant FVIII (human, UniProt P00451 20-2351).
T1 chain: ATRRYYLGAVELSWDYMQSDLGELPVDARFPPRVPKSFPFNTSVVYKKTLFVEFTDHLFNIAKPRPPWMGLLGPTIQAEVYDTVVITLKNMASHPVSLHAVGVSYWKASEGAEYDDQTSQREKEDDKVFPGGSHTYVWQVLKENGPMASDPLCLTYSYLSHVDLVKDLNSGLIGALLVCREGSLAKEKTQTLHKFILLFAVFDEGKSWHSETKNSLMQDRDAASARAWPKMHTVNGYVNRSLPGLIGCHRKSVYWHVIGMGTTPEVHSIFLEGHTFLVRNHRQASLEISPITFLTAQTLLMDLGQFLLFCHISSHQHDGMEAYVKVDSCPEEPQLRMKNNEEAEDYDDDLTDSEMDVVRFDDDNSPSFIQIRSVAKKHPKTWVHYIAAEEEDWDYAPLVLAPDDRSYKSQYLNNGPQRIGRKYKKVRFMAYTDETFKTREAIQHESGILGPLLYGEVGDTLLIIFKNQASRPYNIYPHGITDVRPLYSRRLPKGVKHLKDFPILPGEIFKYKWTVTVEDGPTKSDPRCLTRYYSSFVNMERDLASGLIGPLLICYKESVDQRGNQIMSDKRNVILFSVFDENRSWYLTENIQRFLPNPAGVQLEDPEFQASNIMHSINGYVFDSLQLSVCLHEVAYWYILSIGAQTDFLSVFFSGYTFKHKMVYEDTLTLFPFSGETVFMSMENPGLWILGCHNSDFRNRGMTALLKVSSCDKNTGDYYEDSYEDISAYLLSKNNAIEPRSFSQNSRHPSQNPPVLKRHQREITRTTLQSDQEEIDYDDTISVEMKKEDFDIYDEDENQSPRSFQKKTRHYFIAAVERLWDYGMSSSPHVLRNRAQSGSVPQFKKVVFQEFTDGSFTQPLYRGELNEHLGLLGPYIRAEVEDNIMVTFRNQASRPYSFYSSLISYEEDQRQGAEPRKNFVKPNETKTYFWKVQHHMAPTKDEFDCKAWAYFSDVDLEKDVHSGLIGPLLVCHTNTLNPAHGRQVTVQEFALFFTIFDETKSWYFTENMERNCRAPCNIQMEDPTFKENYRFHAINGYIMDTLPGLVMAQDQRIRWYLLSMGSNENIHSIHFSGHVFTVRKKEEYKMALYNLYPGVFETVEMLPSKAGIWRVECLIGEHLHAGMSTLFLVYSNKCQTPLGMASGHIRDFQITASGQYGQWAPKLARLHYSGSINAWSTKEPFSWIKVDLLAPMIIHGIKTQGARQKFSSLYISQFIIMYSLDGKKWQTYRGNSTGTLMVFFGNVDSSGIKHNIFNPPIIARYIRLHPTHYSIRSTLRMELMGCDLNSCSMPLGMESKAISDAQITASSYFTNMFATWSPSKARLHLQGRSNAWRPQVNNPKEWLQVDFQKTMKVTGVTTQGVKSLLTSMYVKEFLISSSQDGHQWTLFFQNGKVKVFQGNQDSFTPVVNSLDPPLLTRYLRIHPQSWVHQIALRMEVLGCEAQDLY
As to the kind of experiment: SPR (BIAcore), antibody immobilised on CM5 chip, FVIII infused.

The target in assay [1] is recombinant FVIII (human), P00451. The experiment in a line: cell-based or functional assay.
Assay [2] concerns the target Factor VIII in a pool of normal human plasma (human), P00451. As to the kind of experiment: cell-based or functional assay.

B1: CHO-recKRIX-1 (recombinant Krix-1 produced in CHO cells) (antibody, V domains shown)
VH: QVQLVQSGAEVKKPGASVKVSCKTSGYNFTGYSASGHIFTAYSVHWVRQAPGQGLEWMGRINPNSGATDYAHKFQGRVTMSRDTSISTAYMELSRLTSDDTAMYYCARADNYFDIVTGYTSHYFDYWGRGTLVTVSS
VL: EIVLTQSPGTLSLSPGERATLSCRASQSVASAYLAWYQQKPGQAPRLLIYGASSRATDIPHRFSGSGSGTDFTLTISRLEPEDFAVYYCQQYGTSALLTFGGGTKVEIKR
modifications: N-linked glycosylation site at Asn47-Thr49, glycosylated as produced by CHO cells
notes: also called native CHO-rec-KRIX-1; rec-mAb Krix-1
For orientation: Kd means the equilibrium constant for the complex coming apart. For B1, the Kd with recombinant FVIII was determined as 0.14 nM.

B2: CHO-recKRIX-1Q (Krix-1 with Asn47 changed to Gln in the heavy chain, produced in CHO cells) (antibody, IgG4, V domains shown)
VH: QVQLVQSGAEVKKPGASVKVSCKTSGYQFTGYSASGHIFTAYSVHWVRQAPGQGLEWMGRINPNSGATDYAHKFQGRVTMSRDTSISTAYMELSRLTSDDTAMYYCARADNYFDIVTGYTSHYFDYWGRGTLVTVSS
VL: EIVLTQSPGTLSLSPGERATLSCRASQSVASAYLAWYQQKPGQAPRLLIYGASSRATDIPHRFSGSGSGTDFTLTISRLEPEDFAVYYCQQYGTSALLTFGGGTKVEIKR
notes: IgG4 kappa; The mutation disrupts the N-linked glycosylation site at Asn47-Thr49; also called Asn47Gln Krix-1; rec-mAb-KRIX-1Q
As to B2, the Kd with recombinant FVIII is 0.17 nM.

B3: CHO-recKRIX-1A (Krix-1 with Thr49 changed to Ala in the heavy chain, produced in CHO cells) (antibody, IgG4, V domains shown)
VH: QVQLVQSGAEVKKPGASVKVSCKTSGYNFAGYSASGHIFTAYSVHWVRQAPGQGLEWMGRINPNSGATDYAHKFQGRVTMSRDTSISTAYMELSRLTSDDTAMYYCARADNYFDIVTGYTSHYFDYWGRGTLVTVSS
VL: EIVLTQSPGTLSLSPGERATLSCRASQSVASAYLAWYQQKPGQAPRLLIYGASSRATDIPHRFSGSGSGTDFTLTISRLEPEDFAVYYCQQYGTSALLTFGGGTKVEIKR
notes: IgG4 kappa; The mutation disrupts the N-linked glycosylation site at Asn47-Thr49
B3: the dissociation constant (Kd) with recombinant FVIII came out at 0.13 nM.

B4: RHD5 (human monoclonal antibody from the lymphoblastoid cell line RHD5) (antibody, V domains shown)
VH: QVQLVQSGAEVKKPGSSVMVSCKASGGTFSSFGISWVRQAPGQGLEWVGGIIPIFGTANTARNFQNRVTITADEFTSTAYIRLRSLRSEDTAVYYCVGGRDAYSFDGFDVWGQGTMVTVSSASTKGPSVFP
VL: SSGLTQPHSVSVSPGQTANITCSRDKLGHKFASWYQQKPGQSPALLIYQDSKRPSGIPERFSGSNSGNTATLTISGTQAMDEADYYCQAWDNTTAVFGGGTKLTVLSQPKAAPSVTLFPPS
Turning to B4, the inhibition of FVIII activity at a final concentration of RHD5 of 100 microgram/ml (full length recombinant FVIII) in assay [1] is 98%. Also, the inhibition of FVIII activity at a final concentration of RHD5 of 100 microgram/ml (plasma) in assay [2] worked out at 97%.

B5: Krix-1 (human monoclonal antibody KRIX-1 produced in a lymphoblastoid cell line) (antibody, V domains shown)
VH: QVQLVQSGAEVKKPGASVKVSCKTSGYNFTGYSASGHIFTAYSVHWVRQAPGQGLEWMGRINPNSGATDYAHKFQGRVTMSRDTSISTAYMELSRLTSDDTAMYYCARADNYFDIVTGYTSHYFDYWGRGTLVTVSSASTKGPSVF
VL: EIVLTQSPGTLSLSPGERATLSCRASQSVASAYLAWYQQKPGQAPRLLIYGASSRATDIPHRFSGSGSGTDFTLTISRLEPEDFAVYYCQQYGTSALLTFGGGTKVEIKRTVAAPSVFIFPPS
modifications: here or on the partner: N-linked glycosylation site at Asn47-Thr49, glycosylated as produced by the human lymphoblastoid cell line
With B5, in assay [2], the inhibition of FVIII activity in plasma (Bethesda assay, chromogenic FVIII assay) amounted to 90% and the inhibition of FVIII activity in plasma (chromogenic assay) came out at 90%.

B6: CHO-recKRIX-1 (recombinant Krix-1 produced in CHO cells) (antibody, V domains shown)
VH: QVQLVQSGAEVKKPGASVKVSCKTSGYNFTGYSASGHIFTAYSVHWVRQAPGQGLEWMGRINPNSGATDYAHKFQGRVTMSRDTSISTAYMELSRLTSDDTAMYYCARADNYFDIVTGYTSHYFDYWGRGTLVTVSSASTKGPSVF
VL: EIVLTQSPGTLSLSPGERATLSCRASQSVASAYLAWYQQKPGQAPRLLIYGASSRATDIPHRFSGSGSGTDFTLTISRLEPEDFAVYYCQQYGTSALLTFGGGTKVEIKRTVAAPSVFIFPPS
modifications: here or on the partner: N-linked glycosylation site at Asn47-Thr49, glycosylated as produced by CHO cells
B6 displayed a maximal inhibition of FVIII activity in large excess of antibody (chromogenic assay) in assay [2] of 75 to 85%.

B7: deglycosylated KRIX-1 (KRIX-1 treated with N-glycosidase-F) (antibody, IgG4, V domains shown)
VH: QVQLVQSGAEVKKPGASVKVSCKTSGYNFTGYSASGHIFTAYSVHWVRQAPGQGLEWMGRINPNSGATDYAHKFQGRVTMSRDTSISTAYMELSRLTSDDTAMYYCARADNYFDIVTGYTSHYFDYWGRGTLVTVSSASTKGPSVF
VL: EIVLTQSPGTLSLSPGERATLSCRASQSVASAYLAWYQQKPGQAPRLLIYGASSRATDIPHRFSGSGSGTDFTLTISRLEPEDFAVYYCQQYGTSALLTFGGGTKVEIKRTVAAPSVFIFPPS
modifications: here or on the partner: N-linked glycans removed by N-glycosidase-F (2 U/ml, 37 C, 72 h)
Consider B7, for which, in assay [2], the inhibition of FVIII activity in plasma (chromogenic assay) was found to be 50% and the maximal inhibition (plateau inhibition) of FVIII activity in plasma (Bethesda assay, chromogenic FVIII assay) came out at 50%.

The values are drawn from patent US20060292149A1 (LIFE SCIENCES RESEARCH PARTNERS, published 2006).
